{"source": "paper PMC6943125", "binders": {"B1": {"name": "33-bp dsRNA (dsRNA)", "RNA 1": "CGAGCUCGCCCGGGGAUCCUCUAGAGUCGACCUGC", "RNA 2": "CUGCAGGUCGACUCUAGAGGAUCCCCGGGCGAGCU"}, "B2": {"name": "16-bp dsRNA (dsRNA)", "RNA 1": "CCAUCCUCUACAGGCG", "RNA 2": "CGCCUGUAGAGGAUGG"}}, "key": {"[1]": {"target": "T1, DHX30N (human, UniProt Q7L2E3-3 1-152)", "T1 sequence": "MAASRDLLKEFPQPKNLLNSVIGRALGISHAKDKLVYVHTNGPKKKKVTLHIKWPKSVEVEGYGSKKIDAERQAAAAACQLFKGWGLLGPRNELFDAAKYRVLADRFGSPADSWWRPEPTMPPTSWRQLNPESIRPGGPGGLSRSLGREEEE", "assay": "fluorescence polarization; 30 nM RNA, pH 6.0 NMR buffer; EMSA: 50 mM Tris-HCl pH 7.5, 150 mM NaCl, 10% glycerol, on ice, 1% agarose 4 C; FP and NMR: pH 6.0 NMR buffer (composition not in material); Ni-NTA: 20 mM Na phosphate pH 6.6, 100 mM NaCl, 20 mM beta-mercaptoethanol, 1% glycerol, room temperature", "conditions": "protein: recombinant"}, "[2]": {"target": "NS1 RBD (Influenza A virus Ud, UniProt P03495 1-73)", "sequence (P03495 1-73)": "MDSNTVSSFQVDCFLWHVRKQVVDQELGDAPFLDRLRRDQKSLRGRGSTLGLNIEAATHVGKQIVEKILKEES", "assay": "NMR; equimolar dsRNA, pH 6.0 NMR buffer", "conditions": "protein: recombinant; tags: none (SUMO-His6 cleaved); chain copies: 2"}}}
{"binder": "CCAUCCUCUACAGGCG (ssRNA)", "note": "[16-nt sense ssRNA]", "values": [{"measurement": "Kd", "setting": "[1]; label: 5' FAM", "value": "~500", "unit": "nM"}]}
{"binder": "B1", "values": [{"measurement": "binding result", "setting": "[2]", "value": "binds"}]}
{"binder": "B2", "values": [{"measurement": "Kd", "setting": "[1]; label: FAM (sense and antisense)", "value": "~40", "unit": "nM"}]}
